Experimental data published in publication PMC11880984, “Altered O‐glycosylation of β1‐adrenergic receptor N‐terminal single‐nucleotide variants modulates receptor processing and functional activity” (The Febs Journal, 2024).
Each block holds one substance with its values, some of them ahead of it.

How the values were obtained:
[1] = Flow cytometry, surface full-length receptor, cMyc antibody, HEK293i; conditions: control: S49 (WT) variant
[2] = Western blot, P52↓L53 cleavage in isolated HEK293i membranes; conditions: glycan lost; control: S49 (WT) variant
[3] = Western blot, cleavage at R31↓L32; HEK293, CHO-K1, NRVM; conditions: glycan lost; control: S49 (WT) variant
[4] = Western blot, N-terminal cleavage, CHO-ldlD cells
[5] = Western blot, N-terminal cleavage, rat cardiomyocytes; conditions: glycan lost
[6] = molecular target: human β1-adrenergic receptor G49R389 variant (human) (UniProt P08588)
[7] = molecular target: human β1-adrenergic receptor S49G389 variant (human) (UniProt P08588)
[8] = molecular target: human β1-adrenergic receptor G49G389 variant (human) (UniProt P08588)
human β1-adrenergic receptor G49G389 variant (human), sequence (P08588 whole entry S49G): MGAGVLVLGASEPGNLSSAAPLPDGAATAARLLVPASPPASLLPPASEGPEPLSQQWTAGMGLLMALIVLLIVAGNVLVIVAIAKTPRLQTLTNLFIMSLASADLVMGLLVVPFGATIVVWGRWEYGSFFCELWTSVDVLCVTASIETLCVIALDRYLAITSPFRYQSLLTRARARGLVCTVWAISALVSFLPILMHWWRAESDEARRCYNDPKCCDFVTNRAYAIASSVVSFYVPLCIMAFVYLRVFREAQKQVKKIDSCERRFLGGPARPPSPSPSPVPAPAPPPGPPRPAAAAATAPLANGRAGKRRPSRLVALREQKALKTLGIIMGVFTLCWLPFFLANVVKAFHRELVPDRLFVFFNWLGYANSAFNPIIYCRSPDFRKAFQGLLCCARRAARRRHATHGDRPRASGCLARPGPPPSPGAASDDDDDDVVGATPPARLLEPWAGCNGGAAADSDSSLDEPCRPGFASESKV

β-arrestin2 fused to Renilla luciferaseII, sequence (P32121 whole entry, the tested form may be a part): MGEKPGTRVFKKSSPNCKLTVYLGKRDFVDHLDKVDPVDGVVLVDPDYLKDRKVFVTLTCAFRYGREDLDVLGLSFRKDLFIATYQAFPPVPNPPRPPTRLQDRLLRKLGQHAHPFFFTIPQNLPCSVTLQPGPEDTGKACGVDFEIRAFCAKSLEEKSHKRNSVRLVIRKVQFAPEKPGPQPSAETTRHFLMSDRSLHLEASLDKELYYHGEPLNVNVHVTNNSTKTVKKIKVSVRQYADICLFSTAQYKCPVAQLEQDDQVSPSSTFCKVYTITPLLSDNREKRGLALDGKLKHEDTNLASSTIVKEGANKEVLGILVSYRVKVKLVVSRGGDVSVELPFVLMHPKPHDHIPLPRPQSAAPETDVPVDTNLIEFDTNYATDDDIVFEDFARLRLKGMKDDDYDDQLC
human β1-adrenergic receptor S49G389 variant (human), sequence (P08588 whole entry, change not shown): as the sequence (P08588 whole entry S49G) above, with G49S counted along it
human β1-adrenergic receptor G49R389 variant (human), sequence (P08588 other isoform, or with tags, fused parts or gaps S49G | R389 (the paper's WT allele at rs1801253) | mutant): as the sequence (P08588 whole entry S49G) above, with G389R counted along it

Substance: human β1‐adrenergic receptor (hβ1AR): G49 variant
expression_or_secretion ([1]; glycan lost): no change
other: proteolytic processing [2]: increases
other: proteolytic processing [3]: no change

Substance: human β1‐adrenergic receptor (hβ1AR): GalNAc only (Tn)
other: proteolytic processing ([4]; glycan changed form, control: S49 (WT) in CHO-ldlD with Gal + GalNAc): increases
other: proteolytic processing ([4]; glycan changed form, control: T29 variant in CHO-ldlD with Gal + GalNAc): no change

Substance: human β1‐adrenergic receptor (hβ1AR): Galnt2 KO
other: proteolytic processing ([5]; control: S49 (WT) in WT NRVMs): increases
other: proteolytic processing ([5]; control: T29 variant in WT NRVMs): no change

Substance: human β1‐adrenergic receptor (hβ1AR): T29 variant
expression_or_secretion ([1]; glycan gained): increases

Substance: human β1‐adrenergic receptor (hβ1AR): no GalNAc, no Gal
other: proteolytic processing ([4]; glycan lost, control: S49 (WT) in CHO-ldlD with Gal + GalNAc): increases

E max of isoproterenol-induced β-arrestin2 recruitment to the plasma membrane, enhanced bystander BRET (β-arrestin2-RlucII with rGFP-CAAX) in HEK293S cells, normalised to S49R389 [6]: 97.8 % WT E max
E max of isoproterenol-induced β-arrestin2 recruitment to the plasma membrane, enhanced bystander BRET (β-arrestin2-RlucII with rGFP-CAAX) in HEK293S cells, normalised to S49R389 [7]: 89.4 % WT E max
E max of isoproterenol-induced β-arrestin2 recruitment to the plasma membrane, enhanced bystander BRET (β-arrestin2-RlucII with rGFP-CAAX) in HEK293S cells, normalised to S49R389 [8]: 83.3 % WT E max
Substance: β-arrestin2 fused to Renilla luciferaseII (from UniProt P32121 1-409) (natural protein)
